Patent publication US20200181251A1 (SCHOLAR ROCK, published 2020)

Biological target: T1, LRRC33 (Leucine-rich repeat-containing protein 33) (human, UniProt Q86YC3 19-692)
T1 construct: Endogenous LRRC33 on the surface of PMA-stimulated THP1 cells; On cells it may be complexed with proTGFb1; also called NRROS; Negative Regulator of Reactive Oxygen Species
T1 sequence: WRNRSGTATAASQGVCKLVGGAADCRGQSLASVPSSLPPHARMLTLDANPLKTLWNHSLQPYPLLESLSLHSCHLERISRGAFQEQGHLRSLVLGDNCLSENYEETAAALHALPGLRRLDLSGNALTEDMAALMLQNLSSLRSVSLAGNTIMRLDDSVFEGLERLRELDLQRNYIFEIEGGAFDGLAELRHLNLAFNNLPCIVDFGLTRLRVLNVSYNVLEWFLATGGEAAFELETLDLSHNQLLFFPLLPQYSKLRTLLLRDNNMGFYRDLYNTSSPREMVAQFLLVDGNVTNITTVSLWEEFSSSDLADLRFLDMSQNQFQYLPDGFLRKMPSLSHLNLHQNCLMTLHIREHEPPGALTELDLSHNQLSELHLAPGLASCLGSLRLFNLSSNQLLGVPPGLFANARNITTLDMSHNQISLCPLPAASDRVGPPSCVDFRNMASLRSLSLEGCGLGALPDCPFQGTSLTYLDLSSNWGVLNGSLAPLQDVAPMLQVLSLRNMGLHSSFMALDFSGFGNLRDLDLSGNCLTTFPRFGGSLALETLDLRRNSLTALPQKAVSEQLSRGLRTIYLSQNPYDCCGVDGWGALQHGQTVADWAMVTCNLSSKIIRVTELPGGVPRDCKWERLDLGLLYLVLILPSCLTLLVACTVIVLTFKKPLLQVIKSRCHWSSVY
Assay: staining of PMA-stimulated THP1 cells with 10 ug/mL antibody, detected with fluorophore conjugated secondary antibody (internalization assay)
Experimental: FIG. 15 provides results from an internalization study. THP1 cells were stimulated overnight with PMA to induce LRRC33 surface expression and adherence to tissue culture plastic. The next day, cells were stained with antibodies at 10 ug/mL for 1 hour. A subset of cells were washed and moved to cell culture media and to 37° C. for 1 hour or two hours, while another subset (time 0) were immediately fixed. Another subset of cells were washed and kept at 4° C. Internalization was detected by using fluorophore conjugated secondary antibodies against the primary antibody isotypes. Gemtuzumab and SRL1, a human specific mouse antibody against LRRC33, internalize similarly.

- binding result: binds
B1: SRL1 (antibody, V domains shown)
VH: EVQLQQSGTVLARPGASVKMSCKASGYTFTYYWMQWVKQRPGQGLEWIGAIYPGNSDTTYNQKFKGKAKLTAVTSTSTAYMELSSLTNEDSAVYYCTNTNWEAMDYWGQGTSVTVSS
VL: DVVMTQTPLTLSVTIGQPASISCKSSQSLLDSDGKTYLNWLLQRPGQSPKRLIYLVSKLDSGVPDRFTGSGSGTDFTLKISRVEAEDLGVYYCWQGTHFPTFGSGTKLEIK
notes: also called LRRC33 antibody SRL1
